Assay results from patent US20110091994A1, “Methods for Screening Compounds for Treating and/or Preventing an Hepatitis C Virus Infection” (priority 2008, published 2011).

B1: PSMB9 (protein, UniProt P28065 21-219, looked up)
Proteasome subunit beta type-9: TTIMAVEFDGGVVMGSDSRVSAGEAVVNRVFDKLSPLHERIYCALSGSAADAQAVADMAAYQLELHGIELEEPPLVLAAANVVRNISYKYREDLSAHLMVAGWDQREGGQVYGTLGGMLTRQPFAIGGSGSTFIYGYVDAAYKPGMSPEECRRFTTDAIALAMSRDGSSGGVIYLVTITAAGVDHRVILGNELPKFYDE
B2: GBP2 (protein, UniProt P32456 1-588, looked up)
Guanylate-binding protein 2: MAPEINLPGPMSLIDNTKGQLVVNPEALKILSAITQPVVVVAIVGLYRTGKSYLMNKLAGKKNGFSLGSTVKSHTKGIWMWCVPHPKKPEHTLVLLDTEGLGDIEKGDNENDSWIFALAILLSSTFVYNSMGTINQQAMDQLHYVTELTDRIKANSSPGNNSVDDSADFVSFFPAFVWTLRDFTLELEVDGEPITADDYLELSLKLRKGTDKKSKSFNDPRLCIRKFFPKRKCFVFDWPAPKKYLAHLEQLKEEELNPDFIEQVAEFCSYILSHSNVKTLSGGIPVNGPRLESLVLTYVNAISSGDLPCMENAVLALAQIENSAAVEKAIAHYEQQMGQKVQLPTETLQELLDLHRDSEREAIEVFMKNSFKDVDQMFQRKLGAQLEARRDDFCKQNSKASSDCCMALLQDIFGPLEEDVKQGTFSKPGGYRLFTQKLQELKNKYYQVPRKGIQAKEVLKKYLESKEDVADALLQTDQSLSEKEKAIEVERIKAESAEAAKKMLEEIQKKNEEMMEQKEKSYQEHVKQLTEKMERDRAQLMAEQEKTLALKLQEQERLLKEGFENESKRLQKDIWDIQMRSKSLEPIC
B3: RASAL2 (protein, UniProt Q9UJF2 1-1139, looked up)
Ras GTPase-activating protein …: MQTPEVPAERSPRRRSISGTSTSEKPNSMDTANTSPFKVPGFFSKRLKGSIKRTKSQSKLDRNTSFRLPSLRSTDDRSRGLPKLKESRSHESLLSPCSTVECLDLGRGEPVSVKPLHSSILGQDFCFEVTYLSGSKCFSCNSASERDKWMENLRRTVQPNKDNCRRAENVLRLWIIEAKDLAPKKKYFCELCLDDTLFARTTSKTKADNIFWGEHFEFFSLPPLHSITVHIYKDVEKKKKKDKNNYVGLVNIPTASVTGRQFVEKWYPVSTPTPNKGKTGGPSIRIKSRFQTITILPMEQYKEFAEFVTSNYTMLCSVLEPVISVRNKEELACALVHILQSTGRAKDFLTDLVMSEVDRCGEHDVLIFRENTIATKSIEEYLKLVGQQYLHDALGEFIKALYESDENCEVDPSKCSSSELIDHQSNLKMCCELAFCKIINSYCVFPRELKEVFASWKQQCLNRGKQDISERLISASLFLRFLCPAIMSPSLFNLMQEYPDDRTSRTLTLIAKVIQNLANFAKFGNKEEYMAFMNDFLEHEWGGMKRFLLEISNPDTISNTPGFDGYIDLGRELSVLHSLLWEVVSQLDKGENSFLQATVAKLGPLPRVLADITKSLTNPTPIQQQLRRFTEHNSSPNVSGSLSSGLQKIFEDPTDSDLHKLKSPSQDNTDSYFRGKTLLLVQQASSQSMTYSEKDERESSLPNGRSVSLMDLQDTHAAQVEHASVMLDVPIRLTGSQLSITQVASIKQLRETQSTPQSAPQVRRPLHPALNQPGGLQPLSFQNPVYHLNNPIPAMPKASIDSSLENLSTASSRSQSNSEDFKLSGPSNSSMEDFTKRSTQSEDFSRRHTVPDRHIPLALPRQNSTGQAQIRKVDQGGLGARAKAPPSLPHSASLRSTGSMSVVSAALVAEPVQNGSRSRQQSSSSRESPVPKVRAIQRQQTQQVQSPVDSATMSPVERTAAWVLNNGQYEEDVEETEQNLDEAKHAEKYEQEITKLKERLRVSSRRLEEYERRLLVQEQQMQKLLLEYKARLEDSEERLRRQQEEKDSQMKSIISRLMAVEEELKKDHAEMQAVIDAKQKIIDAQEKRIVSLDSANTRLMSALTQVKERYSMQVRNGISPTNPTKLSITENGEFKNSSC
B4: GOLGA2 (protein, UniProt Q08379 1-1002, looked up)
Golgin subfamily A member 2: MWPQPRLPPRPAMSEETRQSKLAAAKKKLREYQQRNSPGVPTGAKKKKKIKNGSNPETTTSGGCHSPEDTPKDNAATLQPSDDTVLPGGVPSPGASLTSMAASQNHDADNVPNLMDETKTFSSTESLRQLSQQLNGLVCESATCVNGEGPASSANLKDLESRYQQLAVALDSSYVTNKQLNITIEKLKQQNQEITDQLEEEKKECHQKQGALREQLQVHIQTIGILVSEKAELQTALAHTQHAARQKEGESEDLASRLQYSRRRVGELERALSAVSTQQKKADRYNKELTKERDALRLELYKNTQSNEDLKQEKSELEEKLRVLVTEKAGMQLNLEELQKKLEMTELLLQQFSSRCEAPDANQQLQQAMEERAQLEAHLGQVMESVRQLQMERDKYAENLKGESAMWRQRMQQMSEQVHTLREEKECSMSRVQELETSLAELRNQMAEPPPPEPPAGPSEVEQQLQAEAEHLRKELEGLAGQLQAQVQDNEGLSRLNREQEERLLELERAAELWGEQAEARRQILETMQNDRTTISRALSQNRELKEQLAELQSGFVKLTNENMEITSALQSEQHVKRELGKKLGELQEKLSELKETVELKSQEAQSLQQQRDQYLGHLQQYVAAYQQLTSEKEVLHNQLLLQTQLVDQLQQQEAQGKAVAEMARQELQETQERLEAATQQNQQLRAQLSLMAHPGEGDGLDREEEEDEEEEEEEAVAVPQPMPSIPEDLESREAMVAFFNSAVASAEEEQARLRGQLKEQRVRCRRLAHLLASAQKEPEAAAPAPGTGGDSVCGETHRALQGAMEKLQSRFMELMQEKADLKERVEELEHRCIQLSGETDTIGEYIALYQSQRAVLKERHREKEEYISRLAQDKEEMKVKLLELQELVLRLVGDRNEWHGRFLAAAQNPADEPTSGAPAPQELGAANQQGDLCEVSLAGSVEPAQGEAREGSPRDNPTAQQIMQLLREMQNPRERPGLGSNPCIPFFYRADENDEVKITVI
B5: GPS2 (protein, UniProt Q13227 1-327, looked up)
G protein pathway suppressor 2: MPALLERPKLSNAMARALHRHIMMERERKRQEEEEVDKMMEQKMKEEQERRKKKEMEERMSLEETKEQILKLEEKLLALQEEKHQLFLQLKKVLHEEEKRRRKEQSDLTTLTSAAYQQSLTVHTGTHLLSMQGSPGGHNRPGTLMAADRAKQMFGPQVLTTRHYVGSAAAFAGTPEHGQFQGSPGGAYGTAQPPPHYGPTQPAYSPSQQLRAPSAFPAVQYLSQPQPQPYAVHGHFQPTQTGFLQPGGALSLQKQMEHANQQTGFSDSSSLRPMHPQALHPAPGLLASPQLPVQMQPAGKSGFAATSQPGPRLPFIQHSQNPRFYHK
B6: ITGAL (protein, UniProt P20701 26-1170, looked up)
Integrin alpha-L: YNLDVRGARSFSPPRAGRHFGYRVLQVGNGVIVGAPGEGNSTGSLYQCQSGTGHCLPVTLRGSNYTSKYLGMTLATDPTDGSILACDPGLSRTCDQNTYLSGLCYLFRQNLQGPMLQGRPGFQECIKGNVDLVFLFDGSMSLQPDEFQKILDFMKDVMKKLSNTSYQFAAVQFSTSYKTEFDFSDYVKRKDPDALLKHVKHMLLLTNTFGAINYVATEVFREELGARPDATKVLIIITDGEATDSGNIDAAKDIIRYIIGIGKHFQTKESQETLHKFASKPASEFVKILDTFEKLKDLFTELQKKIYVIEGTSKQDLTSFNMELSSSGISADLSRGHAVVGAVGAKDWAGGFLDLKADLQDDTFIGNEPLTPEVRAGYLGYTVTWLPSRQKTSLLASGAPRYQHMGRVLLFQEPQGGGHWSQVQTIHGTQIGSYFGGELCGVDVDQDGETELLLIGAPLFYGEQRGGRVFIYQRRQLGFEEVSELQGDPGYPLGRFGEAITALTDINGDGLVDVAVGAPLEEQGAVYIFNGRHGGLSPQPSQRIEGTQVLSGIQWFGRSIHGVKDLEGDGLADVAVGAESQMIVLSSRPVVDMVTLMSFSPAEIPVHEVECSYSTSNKMKEGVNITICFQIKSLIPQFQGRLVANLTYTLQLDGHRTRRRGLFPGGRHELRRNIAVTTSMSCTDFSFHFPVCVQDLISPINVSLNFSLWEEEGTPRDQRAQGKDIPPILRPSLHSETWEIPFEKNCGEDKKCEANLRVSFSPARSRALRLTAFASLSVELSLSNLEEDAYWVQLDLHFPPGLSFRKVEMLKPHSQIPVSCEELPEESRLLSRALSCNVSSPIFKAGHSVALQMMFNTLVNSSWGDSVELHANVTCNNEDSDLLEDNSATTIIPILYPINILIQDQEDSTLYVSFTPKGPKIHQVKHMYQVRIQPSIHDHNIPTLEAVVGVPQPPSEGPITHQWSVQMEPPVPCHYEDLERLPDAAEPCLPGALFRCPVVFRQEILVQVIGTLELVGEIEASSMFSLCSSLSISFNSSKHFHLYGSNASLAQVVMKVDVVYEKQMLYLYVLSGIGGLLLLLLIFIVLYKVGFFKRNLKEKMEAGRGVPNGIPAEDSEQLASGQEAGDPGCLKPLHEKDSESGGGKD

What follows are molecules tested against T1, HCV ORFs (Gal4-DB fusions) (Hepatitis C virus genotype 1b, UniProt Q9WMX2) (assay: not given). Conditions: HCV protein NS3 as bait; human protein as prey.
T1 construct: expressed in transfected cells; host or cells: Saccharomyces cerevisiae MAV203 (IMAP1) / AH109 (IMAP2)
Format: binding, HCV genotype 1b, isolate con1
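For IMAP Y2H IMAP2 (number of IST) in this document: yeast two-hybrid screens using HCV genotype 1b proteins fused to Gal4-DB as baits against prey cDNA libraries from human spleen and foetal brain, IMAP1 via transformation and IMAP2 via mating.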
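For Interaction with viral protein in this document: yeast two-hybrid screens using HCV genotype 1b proteins fused to Gal4-DB as baits against prey cDNA libraries from human spleen and foetal brain, IMAP1 via transformation and IMAP2 via mating.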

| Molecule | IMAP Y2H IMAP2 (number of IST) |
| --- | --- |
| B1 | 1 |
| B2 | 26 |
| B3 | 3 |

Same assay, conditions: HCV protein NS5A as bait; human protein as prey

| Molecule | IMAP Y2H IMAP2 (number of IST) |
| --- | --- |
| B4 | 15 |
| B5 | 1 |
| B1 | 38 |
| B6 | 1 |

Same assay, conditions: HCV protein NS5B as bait; human protein as prey

| Molecule | IMAP Y2H IMAP2 (number of IST) |
| --- | --- |
| B1 | 14 |

The molecules below were run on HCV ORFs (Gal4-DB fusions) (assay: not given). Conditions: human protein listed by gene symbol; the value names the HCV protein it interacts with.
Format: binding, HCV genotype 1b, isolate con1

| Molecule | Interaction with viral protein |
| --- | --- |
| B4 | NS5A |
| B5 | NS5A |
| B1 | NS3 and NS5A |
| B6 | NS5A |
| B2 | NS3 |
| B3 | NS3 |

What follows are molecules tested against T2, GST-tagged viral proteins (Hepatitis C virus genotype 1b, UniProt Q9WMX2) (assay: Validation by co-affinity purification (CoAP)). Conditions: interaction with HCV protein NS5A.
T2 construct: expressed in transfected cells; host or cells: HEK-293T
Format: binding, HCV genotype 1b, isolate con1
Design: key: +: IMAP validation; −: not validated; NA: non assayable due to default of protein expression or to cellular protein directly interacting with GST
From the text: C. Validation of Y2H interactions by co-affinity purification assay. Nine co-AP positive assays are shown, representing: NS5A-SORBS2 (1), NS3-CALCOCO2 (2), NS5A-BIN1 (3), NS5A-MOBK1B (4), NS5A-EFEMP1 (5), NS3-PSMB9 and NS5A-PSMB9 (6), NS5A-PPPIRI3L (7), NS3-RASAL2 (8). After pull-down with GST tagged viral baits (+) or with negative control GST alone (−), cellular preys are identified with anti-Flag antibody. Anti-GST antibody identifies either GST alone or GST-tagged viral baits. Expression of cellular preys in cell lysate is controlled by anti-Flag (bottom panel). […]
A random pool of 59 IMAP Y2H interactions was chosen for CoAP assays. Cellular ORFs (interacting domains found in Y2H screens) were cloned by recombinational cloning from a pool of human cDNA library or the MGC cDNA plasmids using KOD polymerase (Toyobo) into pDONR207 (Invitrogen). After validation by sequencing, these ORFs were transferred to pCi-neo-3xFLAG gateway-converted, and HCV ORFs were transferred into pDEST27 (GST fusion in N-term). HEK-293T cells were then co-transfected (JetPei, Polyplus) by each pair of plasmid encoding interacting proteins. Controls are GST alone against 3xFLAG-tagged preys. Two days after transfection, cells were harvested and lysed (0.5% NP-40, 20 mM Tris-HCl (pH 8.0), 180 mM NaCl, 1 mM EDTA, and complete protease inhibitor cocktail). Cell lysates were cleared by centrifugation for 20 min at 13,000 rpm at 4° C. and soluble protein complexes were purified using Glutathione Sepharose 4B beads (GE Healthcare). Beads were then washed extensively four times with lysis buffer and proteins were separated on SDS-PAGE and transferred to nitrocellulose membrane. GST-tagged viral proteins and 3xFLAG-tagged cellular proteins were detected using standard immunoblotting techniques using anti-GST (Covance) and anti-FLAG M2 (Sigma) monoclonal antibodies (21).

| Molecule | CoAP |
| --- | --- |
| B4 | + |
| B5 | + |
| B1 | + |
| B6 | + |

Same assay, conditions: validation of interaction with HCV protein NS3

| Molecule | CoAP |
| --- | --- |
| B1 | + |
| B2 | + |
| B3 | + |
